± gives the standard deviation of the averaged measurements.
Test: total protein half-life in vivo (active degradation + dilution); higher = more stable protein
[1] = E. coli NCM3722 delta-clpP delta-lon delta-hslV, growth: N-lim chemostat, doubling time 6 h
[2] = E. coli NCM3722 delta-lon, growth: N-lim chemostat, doubling time 6 h
[3] = E. coli NCM3722 delta-smpB, growth: N-lim chemostat, doubling time 6 h
[4] = wild type E. coli NCM3722, growth: C-lim chemostat, doubling time 3 h
[5] = wild type E. coli NCM3722, growth: C-lim chemostat, doubling time 12 h
[6] = wild type E. coli NCM3722, growth: N-lim chemostat, doubling time 12 h
[7] = wild type E. coli NCM3722, growth: P-lim chemostat, doubling time 12 h
[8] = E. coli NCM3722 delta-hslV, growth: N-lim chemostat, doubling time 6 h
[9] = wild type E. coli NCM3722, growth: C-lim chemostat, doubling time 6 h
[10] = wild type E. coli NCM3722, growth: N-lim chemostat, doubling time 6 h
[11] = wild type E. coli NCM3722, growth: P-lim chemostat, doubling time 6 h
[12] = E. coli NCM3722 delta-clpP, growth: N-lim chemostat, doubling time 6 h

Sequence	total protein half-life in vivo [1]	total protein half-life in vivo [2]	total protein half-life in vivo [3]	total protein half-life in vivo [4]	total protein half-life in vivo [5]	total protein half-life in vivo [6]	total protein half-life in vivo [7]	total protein half-life in vivo [8]	total protein half-life in vivo [9]	total protein half-life in vivo [10]	total protein half-life in vivo [11]	total protein half-life in vivo [12]
MKILLAALTSSFMLVGCTPRIEVAAPKEPITINMNVKIEHEIIIKADKDVEELLETRSDLF	7.04 ± 0.68 h	6.88 ± 0.2 h	5.661 ± 0.018 h	3.15 ± 0.11 h	12 ± 1.4 h	13.6 ± 1.1 h	12.9 ± 0.47 h					
MSASALVCLAPGSEETEAVTTIDLLVRGGIKVTTASVASDGNLAITCSRGVKLLADAPLVEVADGEYDVIVLPGGIKGAECFRDSTLLVETVKQFHRSGRIVAAICAAPATVLVPHDIFPIGNMTGFPTLKDKIPAEQWLDKRVVWDARVKLLTSQGPGTAIDFGLKIIDLLVGREKAHEVASQLVMAAGIYNYYE	5.064 ± 0.047 h	4.534 ± 0.022 h	4.23 ± 0.24 h	2.69 ± 0.31 h	9.53 ± 0.47 h	7.09 ± 0.18 h		5.39 ± 1.1 h	5.15 ± 0.32 h	4.21 ± 0.22 h	5.81 ± 0.065 h	
MAIILGIDPGSRVTGYGVIRQVGRQLSYLGSGCIRTKVDDLPSRLKLIYAGVTEIITQFQPDYFAIEQVFMAKNADSALKLGQARGVAIVAAVNQELPVFEYAARQVKQTVVGIGSAEKSQVQHMVRTLLKLPANPQADAADALAIAITHCHVSQNAMQMSESRLNLARGRLR [P0A814]	4.93 ± 0.29 h	3.46 ± 0.7 h	4.18 ± 1.7 h	2.26 ± 0.1 h	6.6 ± 0.2 h	5.21 ± 0.39 h	6.3836 ± 0.0059 h	3.29 ± 0.05 h	4.34 ± 0.17 h	3.56 ± 0.17 h		3.57 ± 0.066 h
MKNWKTLLLGIAMIANTSFAAPQVVDKVAAVVNNGVVLESDVDGLMQSVKLNAAQARQQLPDDATLRHQIMERLIMDQIILQMGQKMGVKISDEQLDQAIANIAKQNNMTLDQMRSRLAYDGLNYNTYRNQIRKEMIISEVRNNEVRRRITILPQEVESLAQQVGNQNDASTELNLSHILIPLPENPTSDQVNEAESQARAIVDQARNGADFGKLAIAHSADQQALNGGQMGWGRIQELPGIFAQALSTAKKGDIVGPIRSGVGFHILKVNDLRGESKNISVTEVHARHILLKPSPIMTDEQARVKLEQIAADIKSGKTTFAAAAKEFSQDPGSANQGGDLGWATPDIFDPAFRDALTRLNKGQMSAPVHSSFGWHLIELLDTRNVDKTDAAQKDRAYRMLMNRKFSEEAASWMQEQRASAYVKILSN [P0ABZ6]	5.66 ± 0.16 h	6.49 ± 0.28 h	5.7 ± 0.35 h	2.97 ± 0.098 h	11.7 ± 0.87 h	13.1 ± 0.99 h	11.7 ± 0.52 h	6.52 ± 0.36 h	6.4 ± 0.42 h	6.23 ± 0.57 h	5.78 ± 0.24 h	6.39 ± 1.2 h
MNKVVLLCRPGFEKECAAEITDKAGQREIFGFARVKENAGYVIYECYQPDDGDKLIRELPFSSLIFARQWFVVGELLQHLPPEDRITPIVGMLQGVVEKGGELRVEVADTNESKELLKFCRKFTVPLRAALRDAGVLANYETPKRPVVHVFFIAPGCCYTGYSYSNNNSPFYMGIPRLKFPADAPSRSTLKLEEAFHVFIPADEWDERLANGMWAVDLGACPGGWTYQLVKRNMWVYSVDNGPMAQSLMDTGQVTWLREDGFKFRPTRSNISWMVCDMVEKPAKVAALMAQWLVNGWCRETIFNLKLPMKKRYEEVSHNLAYIQAQLDEHGINAQIQARQLYHDREEVTVHVRRIWAAVGGRRDER [P0ADR6]	5.236 ± 0.0068 h	5.75 ± 1 h	4.81 ± 0.15 h	3.45 ± 0.77 h	10.2 ± 0.49 h	8.148 ± 0.00089 h	11.6 ± 0.63 h	4.77 ± 0.28 h	5.93 ± 0.44 h	4.78 ± 0.28 h	5.72 ± 0.16 h	4.78 ± 0.26 h
MKYQLTALEARVIGCLLEKQVTTPEQYPLSVNGVVTACNQKTNREPVMNLSESEVQEQLDNLVKRHYLRTVSGFGNRVTKYEQRFCNSEFGDLKLSAAEVALITTLLLRGAQTPGELRSRAARMYEFSDMAEVESTLEQLANREDGPFVVRLAREPGKRENRYMHLFSGEVEDQPAVTDMSNAVDGDLQARVEALEIEVAELKQRLDSLLAHLGD		6.75 ± 0.25 h	5.16 ± 0.098 h	3.01 ± 0.35 h	9.65 ± 0.61 h	10.6 ± 0.71 h	12.8 ± 1.3 h	6.03 ± 0.02 h	6.003 ± 0.036 h	4.69 ± 0.64 h	5.38 ± 0.72 h	5.48 ± 0.32 h
MRKLTALFVASTLALGAANLAHAADTTTAAPADAKPMMHHKGKFGPHQDMMFKDLNLTDAQKQQIREIMKGQRDQMKRPPLEERRAMHDIIASDTFDKVKAEAQIAKMEEQRKANMLAHMETQNKIYNILTPEQKKQFNANFEKRLTERPAAKGKMPATAE		4.86 ± 2.6 h	4.4 ± 1.1 h	2.63 h	8.06 ± 4.6 h	1.93 h	6.54 ± 0.43 h		4.54 ± 0.28 h		3.86 ± 0.27 h	3.6 h
